Experimental data: PMC7110113, “Termination of non‐coding transcription in yeast relies on both an RNA Pol II CTD interaction domain and a CTD‐mimicking region in Sen1” (The EMBO Journal, 2020)
Substitutions are numbered along the chain they refer to. Ends that are not written are not given here. FAM = 5,6-carboxyfluorescein

What was measured:
Experiment in all cases: fluorescence polarisation; fluorescence anisotropy, equilibrium binding of Nrd1 CID variants to FAM-labelled NIM peptides; 10°C, 50 mM Na2HPO4, 100 mM NaCl, pH 8; 1:1 model with non-specific binding (DynaFit)
Settings in all cases: both partners purified
Nrd1 CID I130A = target: T1, Nrd1 CID I130A (S. cerevisiae, UniProt P53617 1-153, I130A)
T1 construct: the construct for anisotropy is made as described previously (Kubicek et al, 2012); also called CID(I130A)-His6; source: recombinant, produced and purified as described previously (Kubicek et al, 2012); plasmid with T7 promoter
T1 sequence (looked up): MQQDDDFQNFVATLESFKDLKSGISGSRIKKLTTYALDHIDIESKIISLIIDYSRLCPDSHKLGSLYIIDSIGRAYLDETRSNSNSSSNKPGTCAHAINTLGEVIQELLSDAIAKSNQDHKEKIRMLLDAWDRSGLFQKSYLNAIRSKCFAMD

Nrd1 CID M126A = target: T2, Nrd1 CID M126A (S. cerevisiae, UniProt P53617 1-153, M126A)
T2 construct: source: recombinant, produced and purified as described previously (Kubicek et al, 2012)
T2 sequence (looked up): T1 sequence (looked up) with M126A, A130I

Nrd1 CID I130K = target: T3, Nrd1 CID I130K (S. cerevisiae, UniProt P53617 1-153, I130K)
T3 construct: the construct for anisotropy is made as described previously (Kubicek et al, 2012); also called CID(I130K)-His6; source: recombinant, produced and purified as described previously (Kubicek et al, 2012); plasmid with T7 promoter
T3 sequence (looked up): T1 sequence (looked up) with A130K

Nrd1 CID L20D = target: T4, Nrd1 CID L20D (S. cerevisiae, UniProt P53617 1-153, L20D)
T4 construct: the construct for anisotropy is made as described previously (Kubicek et al, 2012); also called CID(L20D)-His6; source: recombinant, produced and purified as described previously (Kubicek et al, 2012); plasmid with T7 promoter
T4 sequence (looked up): T1 sequence (looked up) with L20D, A130I

Nrd1 CID R133A = target: T5, Nrd1 CID R133A (S. cerevisiae, UniProt P53617 1-153, R133A)
T5 construct: the construct for anisotropy is made as described previously (Kubicek et al, 2012); also called CID(R133A)-His6; source: recombinant, produced and purified as described previously (Kubicek et al, 2012); plasmid with T7 promoter
T5 sequence (looked up): T1 sequence (looked up) with A130I, R133A

Nrd1 CID R133G = target: T6, Nrd1 CID R133G (S. cerevisiae, UniProt P53617 1-153, R133G)
T6 construct: the construct for anisotropy is made as described previously (Kubicek et al, 2012); also called CID(R133G)-His6; source: recombinant, produced and purified as described previously (Kubicek et al, 2012); plasmid made with QuikChange, T7 promoter
T6 sequence (looked up): T1 sequence (looked up) with A130I, R133G

Nrd1 CID K21D = target: T7, Nrd1 CID K21D (S. cerevisiae, UniProt P53617 1-153, K21D)
T7 construct: the construct for anisotropy is made as described previously (Kubicek et al, 2012); also called CID(K21D)-His6; source: recombinant, produced and purified as described previously (Kubicek et al, 2012); plasmid with T7 promoter
T7 sequence (looked up): T1 sequence (looked up) with K21D, A130I

B1: Sen1 NIM peptide (Sen1 aa 2,052-2,063) (peptide, UniProt Q00416 2052-2063, looked up)
peptide: {FAM}-DDDEDDYTPSIS
notes: Sen1, S. cerevisiae, fragment harbouring aa 2,052-2,063; source: synthetic peptide
Binder B1 has a Kd (Nrd1 CID I130A) of 7.6 ± 0.3 µM, a Kd (Nrd1 CID M126A) of 1.4 ± 0.07 µM and a Kd (Nrd1 CID I130K) of 36.7 ± 4.6 µM. The Kd (Nrd1 CID L20D) was 16.9 ± 1.5 µM, the Kd (Nrd1 CID R133A) was 1.8 ± 0.08 µM and the Kd (Nrd1 CID R133G) was 1.6 ± 0.04 µM. The Kd (Nrd1 CID K21D) was 8 ± 0.8 µM.
